The nature of data set [1]: folding stability dG unfold (combined trypsin and chymotrypsin); higher = more stable. The gist of the method:
(§1)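 Designed mini-proteins with no cysteine and under 80 residues were kept only if AlphaFold2 dimer inter-PAE was above 15. In a PA-tagged cDNA display construct, they were digested with trypsin and chymotrypsin and then sequenced. K50 was inferred by Bayesian fitting of counts, and unfolding free energy was derived per protease or combined against a sequence-predicted unfolded-state K50 and a shared folded-state K50.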

Data set [2] is described as follows: folding stability dG unfold from chymotrypsin proteolysis; higher = more stable. The essentials:
as §1

Data set [3] is described as follows: folding stability dG unfold from trypsin proteolysis; higher = more stable. The gist of the method:
as §1

± gives the half width of the 95% confidence interval.

Consider “SAGGSAGGSAGFHIDVEVHRDDEGYVKVRVKMYMYNPDPGEPMGSFEMTIWIPPEDADKLSAGGSAGGSAGG [r11_575_TrROS]”, for which the entries for the “folding stability dG unfold” value in data set [1], in data set [2] and in data set [3] were 3.7 ± 0.098 kcal/mol, 3.9 ± 0.056 kcal/mol and 3.33 ± 0.14 kcal/mol, respectively.

“SAGGSAGGSAGFYKAKLKILKTKVYSNEKGTKKKTYKPVLILEELIPPKIPKELWEKLNKSAGGSAGGSAGG [r11_318_TrMRF]”: the entries for the “folding stability dG unfold” value in data set [1], in data set [2] and in data set [3] were 0.55 ± 0.57 kcal/mol, 0.528 ± 0.4 kcal/mol and 0.836 ± 0.3 kcal/mol, respectively.

For “SAGGSAGGSAGGAAPNTFKVRLELKVKVEKRTYKNEDGSTYEVDSISVELKIEIEPLPDSAGGSAGGSAGGS [r10_1212_TrROS_Hall]”, the “folding stability dG unfold” value in data set [1] was 5.66 ± 0.51 kcal/mol; in data set [2], 5.69 ± 0.2 kcal/mol; in data set [3], 3.85 ± 0.19 kcal/mol.

Consider “SAGGSAGGSAGGAEITIEEKDGKLTLTVRLPDGYVATATFDPNGKWTIKEIKVYKLPEGLSAGGSAGGSAGG [r7_826_TrROS_Hall]”, for which the entries for the “folding stability dG unfold” value in data set [1], in data set [2] and in data set [3] were 3.05 ± 0.47 kcal/mol, 3.52 ± 0.077 kcal/mol and 2.35 ± 0.3 kcal/mol, respectively.

As to “SAGGSAGGSAGGAEKFKVLSVSWDLGKGKRYGVLEVERPDGPLLTIVVPLSYPDKLKELASAGGSAGGSAGG [r7_365_TrMRF]”, the “folding stability dG unfold” value in data set [1] came out at 1.02 ± 0.22 kcal/mol; in data set [2], 1.29 ± 0.17 kcal/mol; in data set [3], 0.395 ± 0.14 kcal/mol.

Consider “SAGGSAGGSAGGAELLPSDVLKFTLTIQPDLKGSPPIIVEVTISVPPEVLEKPEIEVSLSAGGSAGGSAGGS [r10_672_JUSTAS]”, for which the “folding stability dG unfold” value amounted to 2.7 ± 0.15 kcal/mol in data set [1], 2.87 ± 0.093 kcal/mol in data set [2] and 2.12 ± 0.15 kcal/mol in data set [3].

Regarding “SAGGSAGGSAGGAKKAIEEAIKAGYLPYEDPESGKIHFYFPTPDGTIHKLTLFVAPEEESAGGSAGGSAGGS [r10_1173_TrMRF]”, the “folding stability dG unfold” value stood at 0.796 ± 0.14 kcal/mol in data set [1], 0.711 ± 0.17 kcal/mol in data set [2] and 0.591 ± 0.03 kcal/mol in data set [3].

On to “SAGGSAGGSAGGAKTTTLGSESEEEIRAVAAKLPADSTITTNRPGGTSVITVSPNEIVTNSAGGSAGGSAGG [r7_560_JUSTAS]”, for which the results for the “folding stability dG unfold” value in data set [1], in data set [2] and in data set [3] were 0.836 ± 0.055 kcal/mol, 1.22 ± 0.046 kcal/mol and 0.144 ± 0.043 kcal/mol, respectively.

With “SAGGSAGGSAGGALEEKAKEIIEELKKKGIKVKEVKTSPNEITITFEDGSTKKIPIINGSAGGSAGGSAGGS [r10_169_JUSTAS]”, the “folding stability dG unfold” value in data set [1] turned out to be 2.66 ± 0.1 kcal/mol; in data set [2], 2.54 ± 0.16 kcal/mol; in data set [3] it was 2.55 ± 0.12 kcal/mol.

In the case of “SAGGSAGGSAGGAPAAVESVEPLKIGDKEYLRITFPDGTTVTLPSSTPLSPDGQKLKPVPSAGGSAGGSAGG [r7_931_JUSTAS]”, the “folding stability dG unfold” value in data set [1] was 0.628 ± 0.033 kcal/mol; in data set [2], 0.503 ± 0.031 kcal/mol; in data set [3], 0.65 ± 0.042 kcal/mol.

“SAGGSAGGSAGGAPEKEVTVRVRITVFRDGKPVEEIELEPGQTLTFPPGARVVIEVELLPSAGGSAGGSAGG [r7_141_TrROS_Hall]”: the entries for the “folding stability dG unfold” value in data set [1], in data set [2] and in data set [3] were 3.39 ± 0.17 kcal/mol, 3.51 ± 0.12 kcal/mol and 3 ± 0.13 kcal/mol, respectively.

On to “SAGGSAGGSAGGAPEVKRVLVLVEVEVKPGDTIELPEGARVIWDPKTRRLYVLVEVELRPSAGGSAGGSAGG [r7_584_TrROS_Hall]”, for which the entries for the “folding stability dG unfold” value in data set [1], in data set [2] and in data set [3] were 3.38 ± 0.13 kcal/mol, 3.77 ± 0.057 kcal/mol and 2.73 ± 0.12 kcal/mol, respectively.

For “SAGGSAGGSAGGAPPPPVKVKVVEIEEEGGERRIRVENEDTGEVVELRVPKGAEVLEELSAGGSAGGSAGGS [r10_1038_TrROS_Hall]”, the “folding stability dG unfold” value is 1.23 ± 0.16 kcal/mol in data set [1], 1.37 ± 0.055 kcal/mol in data set [2] and 1.32 ± 0.048 kcal/mol in data set [3].

For the sequence “SAGGSAGGSAGGAPVEVKTAVFRHPDNPRWYVLRVARLPGTGRLVVVLFDPETGEFAVFPSAGGSAGGSAGG [r7_923_TrMRF]”, the “folding stability dG unfold” value is 1.67 ± 0.16 kcal/mol in data set [1], 2.18 ± 0.16 kcal/mol in data set [2] and 0.755 ± 0.087 kcal/mol in data set [3].

Regarding “SAGGSAGGSAGGATAEELAAALKELEAKLKALLEKPEEVEVEVEVKAPEVEEVDGKLVLLSAGGSAGGSAGG [r7_44_TrROS_Hall]”, the entries for the “folding stability dG unfold” value in data set [1], in data set [2] and in data set [3] were 0.145 ± 0.11 kcal/mol, -1.19 ± 0.33 kcal/mol and 0.651 ± 0.041 kcal/mol, respectively.

For the sequence “SAGGSAGGSAGGATFKPGETVRVEVEVELRVFKVDEETGEIVEETETVTVRVEVEVRLESAGGSAGGSAGGS [r10_122_TrROS_Hall]”, the entries for the “folding stability dG unfold” value in data set [1], in data set [2] and in data set [3] were 2.04 ± 0.11 kcal/mol, 2.32 ± 0.053 kcal/mol and 1.87 ± 0.1 kcal/mol, respectively.

With “SAGGSAGGSAGGDDNDPGKIKIEVEVETYPIPNPNGEPFYITTHTIKIPNLDIEFMMIMPSAGGSAGGSAGG [r7_945_TrROS]”, the results for the “folding stability dG unfold” value in data set [1], in data set [2] and in data set [3] were 1.7 ± 0.11 kcal/mol, 1.45 ± 0.039 kcal/mol and 2.01 ± 0.1 kcal/mol, respectively.

“SAGGSAGGSAGGDIFIPPNGKLVVIENLPSIEEALEILKNFPNLKPFIDPKTKKIIVPVSAGGSAGGSAGGS [r10_792_TrMRF]”: the “folding stability dG unfold” value is -0.216 ± 0.099 kcal/mol in data set [1], -0.338 ± 0.045 kcal/mol in data set [2] and -0.145 ± 0.075 kcal/mol in data set [3].

For the sequence “SAGGSAGGSAGGDNVLILVKLPKGYRVYSINDPEVLKAVTLKELKDELEKKTGYPVEVLPSAGGSAGGSAGG [r7_259_TrMRF]”, the entries for the “folding stability dG unfold” value in data set [1], in data set [2] and in data set [3] were 1.57 ± 0.22 kcal/mol, 1.66 ± 0.18 kcal/mol and 1.48 ± 0.041 kcal/mol, respectively.

For the sequence “SAGGSAGGSAGGDPDDKPPKIEWKPIEYSFYLPNGWMISDEIWVFPDNGAILISIEIMPSAGGSAGGSAGGS [r10_881_TrROS]”, the “folding stability dG unfold” value stood at 3.37 ± 0.95 kcal/mol in data set [1], 3.67 ± 0.31 kcal/mol in data set [2] and 2.48 ± 0.21 kcal/mol in data set [3].

As for “SAGGSAGGSAGGDPKKKKGGTFTLTFKLKFTVNIPEGKVEYEFKAKIKITINEPPDFGLSSAGGSAGGSAGG [r7_485_TrMRF]”, the entries for the “folding stability dG unfold” value in data set [1], in data set [2] and in data set [3] were 5.67 ± 0.3 kcal/mol, 5.81 ± 0.23 kcal/mol and 3.81 ± 0.2 kcal/mol, respectively.

On to “SAGGSAGGSAGGDRLKIIIPFPPGMDIDQIAEELKPHFKKVEIEHDKEDGWVTIEVELDSAGGSAGGSAGGS [r10_1007_TrROS]”, for which the “folding stability dG unfold” value in data set [1] was 0.939 ± 0.15 kcal/mol; in data set [2] it was 1.08 ± 0.1 kcal/mol; in data set [3], 0.271 ± 0.097 kcal/mol.

Consider “SAGGSAGGSAGGDSMSYDPKLVEEPVVEVFDGPVLVRVTEVTLPNGKKLTTTEELPPGLESAGGSAGGSAGG [r7_846_JUSTAS]”, for which the “folding stability dG unfold” value in data set [1] is 0.546 ± 0.09 kcal/mol; in data set [2] it was 0.796 ± 0.05 kcal/mol; in data set [3], -0.436 ± 0.17 kcal/mol.

For the sequence “SAGGSAGGSAGGDSNVDNFTLMFPWGWVVKIDITYTDGGLETDWEIIEPVPPLPPDDKNKSAGGSAGGSAGG [r7_845_TrROS]”, the “folding stability dG unfold” value in data set [1] was found to be 2.77 ± 0.12 kcal/mol; in data set [2], 3.54 ± 0.037 kcal/mol; in data set [3], 1.6 ± 0.081 kcal/mol.

Consider “SAGGSAGGSAGGDSVQIEFPDNGMTITINPNNGPISIMEPDGKKKTYPVDSPEEALDAISAGGSAGGSAGGS [r10_849_TrROS]”, for which the “folding stability dG unfold” value was 1.14 ± 0.061 kcal/mol in data set [1], 1.42 ± 0.042 kcal/mol in data set [2] and 0.221 ± 0.027 kcal/mol in data set [3].

In the case of “SAGGSAGGSAGGDVKVTVTVTVDPETGEPVVEVTLELPGDRAIRARFTPDGRLLSVEEVDSAGGSAGGSAGG [r7_454_TrMRF]”, the “folding stability dG unfold” value came out at 3.51 ± 0.21 kcal/mol in data set [1], 3.01 ± 0.16 kcal/mol in data set [2] and 3.79 ± 0.25 kcal/mol in data set [3].

Turning to “SAGGSAGGSAGGEAFEVERVELVLDPETGTPYLLVYFRDGRVLVYDLPRGTWRVVPAEELSAGGSAGGSAGG [r11_922_TrMRF]”, the figures for the “folding stability dG unfold” value in data set [1], in data set [2] and in data set [3] were 2.81 ± 0.065 kcal/mol, 3.06 ± 0.076 kcal/mol and 2.21 ± 0.049 kcal/mol, respectively.

For “SAGGSAGGSAGGEELEVSVSVSVTEVDGKLYLTATVTIDGKEYTFTAELTVTLPPPPPEESAGGSAGGSAGG [r7_413_TrROS_Hall]”, the results for the “folding stability dG unfold” value in data set [1], in data set [2] and in data set [3] were 3.71 ± 0.28 kcal/mol, 3.91 ± 0.19 kcal/mol and 2.77 ± 0.32 kcal/mol, respectively.

For “SAGGSAGGSAGGEIEVKEGEVVLVRLPDGTLLLYDKNTRRLYRFRFKDGKLEVEELELPESAGGSAGGSAGG [r7_527_TrROS_Hall]”, the “folding stability dG unfold” value in data set [1] came to 4.03 ± 0.12 kcal/mol; in data set [2], 4.356 ± 0.039 kcal/mol; in data set [3], 3.35 ± 0.06 kcal/mol.

Turning to “SAGGSAGGSAGGEKEEEEVTVTIYNKETDKVIEITVPKGVTEEEARKKAKELAEELEKKKSAGGSAGGSAGG [r7_957_TrROS_Hall]”, the entries for the “folding stability dG unfold” value in data set [1], in data set [2] and in data set [3] were -0.00187 ± 0.19 kcal/mol, -0.316 ± 0.21 kcal/mol and 0.29 ± 0.032 kcal/mol, respectively.

Turning to “SAGGSAGGSAGGEKEPVTLLVVRVDGKLVVVSEEELKKLAEELNVEVEVRLVTVTKEELKSAGGSAGGSAGG [r7_185_TrROS_Hall]”, the “folding stability dG unfold” value in data set [1] was found to be 1.57 ± 0.085 kcal/mol; in data set [2], 1.94 ± 0.033 kcal/mol; in data set [3] it was 0.567 ± 0.038 kcal/mol.

Take “SAGGSAGGSAGGEKIVLKVKPGDTVEVNGKTIKVPPGALITFDKKTKKLTIEPLSPEDLSAGGSAGGSAGGS [r10_353_TrROS_Hall]”: the “folding stability dG unfold” value is 1.11 ± 0.19 kcal/mol in data set [1], 1.14 ± 0.26 kcal/mol in data set [2] and 0.954 ± 0.058 kcal/mol in data set [3].

For the sequence “SAGGSAGGSAGGEKPKYIIIPATLTVPVLTKEGEGEKVEYKEITLLLIINPDTNEITVSSAGGSAGGSAGGS [r10_533_TrMRF]”, the “folding stability dG unfold” value in data set [1] worked out at 2.86 ± 0.22 kcal/mol; in data set [2], 3.07 ± 0.07 kcal/mol; in data set [3] it was 2.7 ± 0.15 kcal/mol.

Consider “SAGGSAGGSAGGEKTIRITVKNENGETLEIEVSEEDAEELLKALEDAGISLEEITRIEPVSAGGSAGGSAGG [r7_745_TrROS_Hall]”, for which the “folding stability dG unfold” value in data set [1] amounted to 1.8 ± 0.15 kcal/mol; in data set [2], 1.62 ± 0.098 kcal/mol; in data set [3], 1.92 ± 0.12 kcal/mol.

Regarding “SAGGSAGGSAGGEKVTLTLELPAEEIEELAKALAPPGAKVKITKISYDKENKKVTIEIESAGGSAGGSAGGS [r10_1030_TrROS_Hall]”, the results for the “folding stability dG unfold” value in data set [1], in data set [2] and in data set [3] were 1.23 ± 0.07 kcal/mol, 1.4 ± 0.026 kcal/mol and 0.937 ± 0.061 kcal/mol, respectively.
